In article PMC7190159, “The L motifs of two moss pentatricopeptide repeat proteins are involved in RNA editing but predominantly not in RNA recognition”:

T1: 56ΔDYW-wt (PpPPR_56 without transit peptide and DYW domain) (Physcomitrella patens, UniProt A0A2K1IWP1 161-764)
T1 sequence: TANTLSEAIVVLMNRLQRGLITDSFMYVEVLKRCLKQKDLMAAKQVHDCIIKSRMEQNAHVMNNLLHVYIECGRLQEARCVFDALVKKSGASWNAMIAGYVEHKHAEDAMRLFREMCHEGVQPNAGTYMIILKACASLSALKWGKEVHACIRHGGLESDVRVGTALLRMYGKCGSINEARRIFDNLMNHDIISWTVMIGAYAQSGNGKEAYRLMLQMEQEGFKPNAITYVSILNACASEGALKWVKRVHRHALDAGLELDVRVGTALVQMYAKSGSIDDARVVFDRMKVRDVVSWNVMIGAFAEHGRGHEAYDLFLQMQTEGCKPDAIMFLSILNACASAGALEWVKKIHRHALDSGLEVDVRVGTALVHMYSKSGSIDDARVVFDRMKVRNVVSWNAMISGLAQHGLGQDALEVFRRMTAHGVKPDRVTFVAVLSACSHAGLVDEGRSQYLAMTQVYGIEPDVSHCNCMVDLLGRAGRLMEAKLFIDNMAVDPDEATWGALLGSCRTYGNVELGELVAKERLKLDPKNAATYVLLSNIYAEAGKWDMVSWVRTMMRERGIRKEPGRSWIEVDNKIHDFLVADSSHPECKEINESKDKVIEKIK

T2: 56ΔDYW-nad3L (Physcomitrella patens, UniProt A0A2K1IWP1 161-764, V188N;M289T;V390T;D420N;L491N;D521S;V592N;D623S)
T2 sequence: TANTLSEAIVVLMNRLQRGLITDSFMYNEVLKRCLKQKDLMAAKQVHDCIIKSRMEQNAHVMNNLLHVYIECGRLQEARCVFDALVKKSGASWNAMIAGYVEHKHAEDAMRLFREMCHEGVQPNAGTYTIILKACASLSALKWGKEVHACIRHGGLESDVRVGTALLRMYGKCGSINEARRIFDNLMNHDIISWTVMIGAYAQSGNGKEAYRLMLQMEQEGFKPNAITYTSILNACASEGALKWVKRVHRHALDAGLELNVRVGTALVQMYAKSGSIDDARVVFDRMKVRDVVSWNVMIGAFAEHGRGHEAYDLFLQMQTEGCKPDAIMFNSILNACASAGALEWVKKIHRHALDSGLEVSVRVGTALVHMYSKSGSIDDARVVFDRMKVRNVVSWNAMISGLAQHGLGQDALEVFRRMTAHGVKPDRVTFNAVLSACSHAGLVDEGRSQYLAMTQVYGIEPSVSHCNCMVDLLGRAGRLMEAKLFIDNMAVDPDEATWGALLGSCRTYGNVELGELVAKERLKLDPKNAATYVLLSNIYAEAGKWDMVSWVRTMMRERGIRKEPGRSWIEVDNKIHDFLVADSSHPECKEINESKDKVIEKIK

T3: 56ΔDYW-13L[PD] (Physcomitrella patens, UniProt A0A2K1IWP1 161-764, V592P)
T3 sequence: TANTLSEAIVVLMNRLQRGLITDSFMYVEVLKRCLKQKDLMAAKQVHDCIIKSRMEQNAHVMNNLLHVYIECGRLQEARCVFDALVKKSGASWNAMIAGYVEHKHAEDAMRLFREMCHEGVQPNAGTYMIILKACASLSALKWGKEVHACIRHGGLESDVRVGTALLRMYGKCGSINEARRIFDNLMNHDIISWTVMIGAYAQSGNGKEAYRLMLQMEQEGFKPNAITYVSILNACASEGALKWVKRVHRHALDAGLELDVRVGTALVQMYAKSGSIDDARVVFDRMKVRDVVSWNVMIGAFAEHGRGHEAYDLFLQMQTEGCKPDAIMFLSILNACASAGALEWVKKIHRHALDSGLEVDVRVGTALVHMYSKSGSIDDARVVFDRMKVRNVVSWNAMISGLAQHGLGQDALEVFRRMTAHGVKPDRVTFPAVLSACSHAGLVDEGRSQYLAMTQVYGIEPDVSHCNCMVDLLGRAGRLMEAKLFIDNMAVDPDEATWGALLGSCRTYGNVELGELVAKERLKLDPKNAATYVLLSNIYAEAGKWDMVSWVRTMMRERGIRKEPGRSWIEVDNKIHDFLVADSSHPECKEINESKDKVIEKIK

T4: 56ΔDYW-13L[ED] (Physcomitrella patens, UniProt A0A2K1IWP1 161-764, V592E)
T4 sequence: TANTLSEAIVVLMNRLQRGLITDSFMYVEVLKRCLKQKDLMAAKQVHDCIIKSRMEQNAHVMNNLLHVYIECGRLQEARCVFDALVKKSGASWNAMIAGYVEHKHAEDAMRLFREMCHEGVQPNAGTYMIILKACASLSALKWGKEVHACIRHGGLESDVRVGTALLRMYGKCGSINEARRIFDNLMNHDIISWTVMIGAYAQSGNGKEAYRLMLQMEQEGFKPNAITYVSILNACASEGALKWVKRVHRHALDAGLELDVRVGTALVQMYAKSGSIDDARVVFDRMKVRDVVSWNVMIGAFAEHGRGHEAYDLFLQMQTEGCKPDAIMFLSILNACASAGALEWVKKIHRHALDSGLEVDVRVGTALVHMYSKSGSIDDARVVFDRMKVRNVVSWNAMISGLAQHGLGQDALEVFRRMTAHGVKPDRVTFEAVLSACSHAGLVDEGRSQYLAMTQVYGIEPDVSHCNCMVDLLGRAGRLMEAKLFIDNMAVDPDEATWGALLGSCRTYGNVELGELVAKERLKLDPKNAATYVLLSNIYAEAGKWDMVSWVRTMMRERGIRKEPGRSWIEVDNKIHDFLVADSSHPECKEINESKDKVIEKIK


Experiments:
Details in all cases: protein: recombinant; tags: N-term thioredoxin; C-term 6xHis; label: 5'-32P
[1] = molecular target: T1, 56ΔDYW-wt (PpPPR_56 without transit …); test: EMSA; 0-100 nM protein, 50 pM RNA; lower affinity than for nad4; 40 mM Tris pH 8.0, 100 mM NaCl, 4 mM DTT, 0.1 mg/mL BSA, 10% glycerol, 25°C; protein 10 min, then 50 pM RNA 15 min; native 6% PAGE
56ΔDYW-nad3L [2] = molecular target: T2, 56ΔDYW-nad3L; test: EMSA; no significant difference from wt; 40 mM Tris pH 8.0, 100 mM NaCl, 4 mM DTT, 0.1 mg/mL BSA, 10% glycerol, 25°C; protein 10 min, then 50 pM RNA 15 min; native 6% PAGE
56ΔDYW-13L[PD] [3] = molecular target: T3, 56ΔDYW-13L[PD]; test: EMSA; like wt; 40 mM Tris pH 8.0, 100 mM NaCl, 4 mM DTT, 0.1 mg/mL BSA, 10% glycerol, 25°C; protein 10 min, then 50 pM RNA 15 min; native 6% PAGE
56ΔDYW-13L[ED] [4] = molecular target: T4, 56ΔDYW-13L[ED]; test: as above
[5] = molecular target: T1, 56ΔDYW-wt (PpPPR_56 without transit …); test: EMSA; 0-100 nM protein, 50 pM RNA; better affinity than for nad3; 40 mM Tris pH 8.0, 100 mM NaCl, 4 mM DTT, 0.1 mg/mL BSA, 10% glycerol, 25°C; protein 10 min, then 50 pM RNA 15 min; native 6% PAGE
56ΔDYW-13L[PD] [6] = molecular target: T3, 56ΔDYW-13L[PD]; test: EMSA; 100 nM protein; 40 mM Tris pH 8.0, 100 mM NaCl, 4 mM DTT, 0.1 mg/mL BSA, 10% glycerol, 25°C; protein 10 min, then 50 pM RNA 15 min; native 6% PAGE
56ΔDYW-nad3L [7] = molecular target: T2, 56ΔDYW-nad3L; test: as above
[8] = molecular target: T1, 56ΔDYW-wt (PpPPR_56 without transit …); test: as above
56ΔDYW-13L[ED] [9] = molecular target: T4, 56ΔDYW-13L[ED]; test: as above

Binder	binding result [1]	binding result (56ΔDYW-nad3L [2])	binding result (56ΔDYW-13L[PD] [3])	binding result (56ΔDYW-13L[ED] [4])	binding result [5]	binding result (56ΔDYW-13L[PD] [6])	binding result (56ΔDYW-nad3L [7])	binding result [8]	binding result (56ΔDYW-13L[ED] [9])
UUAUUAUAUUUGAUUUGGAAGUCACCUUUUCAUUUC (ssRNA) [nad3-edit]	binds	binds	binds	binds					
AUUUUUAUAUAGGUAUAGACGGUAUCUCUUCAUUUU (ssRNA) [nad4-edit]			binds	binds	binds				
UUAUUUUUUUCGUUUCUCUUUUUGUUUUU (ssRNA) [PpPsbI-RNA1]						no binding	no binding	no binding	no binding
